Results on 9 molecules are retold here after patent US20240083986A1 (published 2024).

The chains are these.
T1: natural Bet v 1 (Indoor, Cat #NA-BV1-1) (Betula verrucosa (European white birch, …, UniProt P15494 2-160))
T1 construct: Bought natural protein purified from birch pollen; also called nBet v 1
T1 sequence: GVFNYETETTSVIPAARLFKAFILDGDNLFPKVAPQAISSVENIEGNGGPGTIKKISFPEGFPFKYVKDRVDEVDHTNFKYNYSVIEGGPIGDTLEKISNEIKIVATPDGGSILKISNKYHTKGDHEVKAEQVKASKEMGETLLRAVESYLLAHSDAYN

T2: European Hornbeam (Car b 1 isoform 1A & 1B, MyBiosource, Cat #MBS1200018) (European Hornbeam, UniProt P38949 2-160)
T2 construct: Bought reagent
T2 sequence (looked up): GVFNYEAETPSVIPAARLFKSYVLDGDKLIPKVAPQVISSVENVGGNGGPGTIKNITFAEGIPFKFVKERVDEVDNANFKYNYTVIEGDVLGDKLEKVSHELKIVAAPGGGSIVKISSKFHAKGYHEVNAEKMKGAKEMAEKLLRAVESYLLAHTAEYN

T3: Alder (Aln g 1, MyBiosource, Cat #MBS1041484) (Alder, UniProt P38948 2-160, limits assumed)
T3 construct: Bought reagent
T3 sequence (looked up): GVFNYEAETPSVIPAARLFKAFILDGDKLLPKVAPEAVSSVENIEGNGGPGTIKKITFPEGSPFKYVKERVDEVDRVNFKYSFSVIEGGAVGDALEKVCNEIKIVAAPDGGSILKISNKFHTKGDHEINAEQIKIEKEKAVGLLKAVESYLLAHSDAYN

T4: Apple (Mal d 1, MyBiosource, Cat #MBS1224919) (Apple, UniProt P43211 2-159, limits assumed)
T4 construct: Bought reagent
T4 sequence (looked up): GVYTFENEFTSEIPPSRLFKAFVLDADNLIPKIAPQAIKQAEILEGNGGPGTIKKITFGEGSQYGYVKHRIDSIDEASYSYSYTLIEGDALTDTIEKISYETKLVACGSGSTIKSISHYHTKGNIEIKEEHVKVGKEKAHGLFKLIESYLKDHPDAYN

T5: Celery (Api g 1, MyBiosource, Cat #MBS1171376) (Celery, UniProt P49372 1-154, limits assumed)
T5 construct: Bought reagent
T5 sequence (looked up): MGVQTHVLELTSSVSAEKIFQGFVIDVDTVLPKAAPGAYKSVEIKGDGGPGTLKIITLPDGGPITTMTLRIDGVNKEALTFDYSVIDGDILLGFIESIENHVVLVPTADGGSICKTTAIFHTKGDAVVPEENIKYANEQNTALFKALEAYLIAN

B1: H4H17031P (antibody, human IgG4, V domains shown)
VH: QVQLQQWGAGLLKPSETLSLTCVVYGESFGNYHWNWIRQSPGKRLEWIGEINQNGHTNYNPSLKSRVTISVDTSKIQFSLRLNSVTAADTAVYFCARGHNYVNSYFGLDVWGQGTTVTVSS
VL: EIVMTQSPATLSVSPGERATLSCRTSQSVSISLAWYQRKPGQAPRLLIFGSSTRATGVPARFSGSGSGTEFTLTISSLQSEDFAVYYCQQYNNWPYTFGQGTKLEIK
B2: H4H17033P (antibody, human IgG4, V domains shown)
VH: QVQLVQSGAEVKKPGASVKVSCKASGYTFAAHYMHWVRQAPGQGLEWMGWINTYTGGTNYGQKFQGRVTMTRDTSITTAYMELSRLRSDDTAVYYCARDRRNWNFVFEYWGQGTLVTVSS
VL: DIQMTQSPSSLSASVGDRVTISCRASQNIKNYLNWYQQKPGKAPKLLIYEASNLQSGAPSRFSGSGSGTDFTLTISSLEPEDFATYYCQQSFSIPWTFGQGTKVEIK
B3: H4H17028P (antibody, human IgG4, V domains shown)
VH: QVQLVESGGGVVQPGRSLRLSCAASGFTFSRYAIHWVRQAPGKGLEWVAVISYDGDDKYYGDSVKGRFTISRDNSKTMVYLHMNSLRTEDTAVYYCAKDGYSLYGKDYFDYWGQGTLVTVSS
VL: EIVLTQSPGTLPLSPGERATLSCRASQSITNSYLAWYQQKPDQAPRLLIYGASSRATGIPDRFSGSESGTDFTLTISRLEPEDFAVYYCQQYVRSPWTFGQGTKVEIK
B4: H4H16979P (antibody, human IgG4, V domains shown)
VH: QVQLVQSGAEVKKPGASVKVSCKASGYTFIAYYLHWVRQAPGQGLEWMGLLNPYTGGSYYTQKFQGRVTMTRDTSIDTAYMELNSLRSDDTAIYYCARDKRSYYIPYAFEIWGQGTMVTVSS
VL: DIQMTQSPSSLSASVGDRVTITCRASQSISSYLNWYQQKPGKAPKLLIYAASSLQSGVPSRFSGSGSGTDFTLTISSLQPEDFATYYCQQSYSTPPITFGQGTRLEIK
B5: H4H16987P (antibody, human IgG4 S228P, kappa, V domains shown)
VH: EVQLVESGGGLVQPGGSLRLSCAASGFTVSSNSMSWVRQAPGEGLEWVSVIFSGGITYYSDSVKGRFTISRHNSKNTLYLQMNSLRTEDTAVYYCARHSNWNFDAFDIWGQGTMVTVSS
VL: DIQMTQSPSSLSASVGDRVTITCRASQSFDTYLNWYQQKPGKAPNLLIYATSSLQSGVPSRFSGSGSGTDFTLTISSLQPEDFGTYYCQQSYSIPYTFGQGTKLEIKR
notes: human IgG4; also called MAB4
B6: H4H16971P (antibody, human IgG4, V domains shown)
VH: QVQLVESGGGVVQPGRSLRLSCAASGFTFSSYGLHWVRQAPGKGLEWVAVISDDGSYKFYADSMKGRFTISRDNSKNTLYLQMNSLRAEDTAVYYCAKDRGRSGWYYFDYWGQGTLVTVSS
VL: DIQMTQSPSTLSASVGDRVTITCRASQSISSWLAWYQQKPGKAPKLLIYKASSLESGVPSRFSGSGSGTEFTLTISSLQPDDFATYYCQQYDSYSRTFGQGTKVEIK
B7: H4H16946P (antibody, human IgG4, V domains shown)
VH: EVQLVESGGGLVQPGGSLRLSCVASGFTFSNYDMNWVRQAPGEGLEWISYISYSDHNIYYIDSVKGRFTISRDNAKNSLYLQMNSLRAEDTAIYYCAREALASSSFDYWGQGTLVTVSS
VL: EIVMTQSPATLSVSPGERVTLSCRASQSVSGNLAWYQQKPGQAPRLLIYSASTGATGVPARFSGSGSGTEFTLTISSLQSEDFALYYCQQYNKWPRTIGQGTKVEIK
B8: H4H16992P (antibody, human IgG4 S228P, kappa, V domains shown)
VH: QVQLQESGPGLVKPSETLSLTCSVSGGSITNYFWTWIRQSPGKGLEWIGYIYYSGGTNYNPSLKSRVTISIDTSKNQFSLNMNSVTAADTAVYYCAGSYYYGVDVWGQGTTVTVSS
VL: EIVLTQSPATLSLSPGERATLSCRASQSIKSFLAWYRQKPGQAPRLLIYDASNRPTGIPARFSGSGSGTDFTLTINSLESEDFAVYFCQQRNNWPFTFGPGTKVDIKR
notes: human IgG4; also called REGN5713; MAB1
B9: H4H17038P2 (antibody, human IgG4 S228P, kappa, V domains shown)
VH: EVQLVESGGDLVQPGGSLRLSCAASGFTFSSYEMNWVRQAPGKGLEWVSFISDSSSNIYYADSVKGRFTISRDNAKKSLYLQMTSLRAEDTAVYYCAREAIGSTSFDNWGQGTLVTVSS
VL: EIVMTQSPATLSVSPGERATLSCRASQSVSSSLAWYQQKPGQAPRRLIYSASTRATGIPARFSGSGSGTEFTLTISSLQSEDFAIYYCHQYNNWPLTFGGGTKVEIKR
notes: human IgG4; also called REGN5714; MAB3

One test concerns the target T1, natural Bet v 1 (Indoor, Cat #NA-BV1-1). Nature of the test: SPR Biacore, mAb captured on anti-hFc, 25C.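 Further: rate constants from sensorgrams fitted to a 1:1 model with mass transport limitation, KD and t½ derived from kinetic constants, run in HBS-ET buffer at pH 7.4.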 For orientation: SPR reads the build-up and loss of mass on a sensor chip optically.
Turning to B1, the “100 nM natural Bet v 1 Bound (RU)” value is 54 RU, the Kd was 13.5 nM, the koff amounted to 0.00168 s⁻¹ and the kon amounted to 124000 M⁻¹ s⁻¹. Also, the t½ turned out to be 6.8 min.
Take B2: the “100 nM natural Bet v 1 Bound (RU)” value is 61 RU, binding was put at a Kd of 1.19 nM, the koff worked out at 0.000469 s⁻¹ and the kon worked out at 394000 M⁻¹ s⁻¹. The t½ turned out to be 25 min.
As for B3, the “100 nM natural Bet v 1 Bound (RU)” value worked out at 63 RU, the Kd is 3.79 nM, the koff is 0.00107 s⁻¹ and the kon stood at 281000 M⁻¹ s⁻¹. The molecule further came in with a t½ of 11 min.
Regarding B4, the “100 nM natural Bet v 1 Bound (RU)” value was determined as 41 RU, binding was characterised by a dissociation constant (Kd) of 1.21 nM, the koff stood at 0.000278 s⁻¹ and the kon amounted to 230000 M⁻¹ s⁻¹. The t½ stood at 42 min.
As for B5, the “100 nM natural Bet v 1 Bound (RU)” value was found to be 61 RU, the Kd came to 2.77 nM, the koff turned out to be 0.00114 s⁻¹ and the kon was found to be 410000 M⁻¹ s⁻¹. The same molecule registered a t½ of 10 min.
As to B6, the “100 nM natural Bet v 1 Bound (RU)” value came to 57 RU; the affinity, expressed as Kd, was 3.26 nM; the koff stood at 0.000781 s⁻¹; the kon amounted to 240000 M⁻¹ s⁻¹. The t½ amounted to 15 min.
The matching figures for B7: 74 RU, 0.982 nM, 0.000201 s⁻¹, 205000 M⁻¹ s⁻¹ and 58 min.

The next test has as its target T2, European Hornbeam (Car b 1 isoform 1A & …). Nature of the test: SPR Biacore, 25C.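 Further: binding of related allergens to purified monoclonal anti-Bet v 1 antibodies by surface plasmon resonance in HEPES-buffered saline pH 7.4, kinetics fitted to a 1:1 model with mass transport.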
Protocol: (§1) Equilibrium dissociation constants (KD) for different related allergens binding to purified anti-Bet v 1 monoclonal antibodies were determined using a real-time surface plasmon resonance biosensor (SPR-Biacore) on a Biacore 4000 instrument. All binding studies were performed in 10 mM HEPES, 150 mM NaCl, 3 mM EDTA, and 0.05% v/v surfactant Tween-20, pH 7.4 (HBS-ET) running buffer at 25° C. […] Binding studies were performed on the following related allergens: Alder (Aln g 1, MyBiosource, Cat #MBS1041484), Apple (Mal d 1, MyBiosource, Cat #MBS1224919), Carrot (Dau c 1.2, MyBiosource, Cat #MBS1212920), Celery (Api g 1, MyBiosource, Cat #MBS1171376), Celery (Api g 2, MyBiosource, Cat #MBS1047880), European Hornbeam (Car b 1 isoform 1A & 1B, MyBiosource, Cat #MBS1200018), European Hornbeam (Car b 1 isoform 2, MyBiosource, Cat #MBS1043940), Hazel (Cor A 1, MyBiosource, Cat #MBS5304600), and White Oak (Que a 1, MyBiosource, Cat #MBS1258822). […] Association (kₐ) and dissociation (kd) rate constants were determined by fitting the real-time binding sensorgrams to a 1:1 binding model with mass transport limitation using Scrubber 2.0c curve-fitting software. Binding dissociation equilibrium constants (KD) and dissociative half-lives (t½) were calculated from the kinetic rate constants as:
In the case of B2, the binding result was “no binding (tested: 100 nM)”.
On the same count and under the same terms, with B4 the entry was “no binding (tested: 100 nM)”; with B5, “no binding (tested: 100 nM)”.
Take B6: the binding result was “no binding (tested: 100 nM)”.

The target of a further test is T3, Alder (Aln g 1, MyBiosource, Cat …). Nature of the test: SPR Biacore, 25C.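 Further: binding of related allergens to purified monoclonal anti-Bet v 1 antibodies by surface plasmon resonance in HEPES-buffered saline pH 7.4, kinetics fitted to a 1:1 model with mass transport.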
Protocol: as §1
For the molecule B8, the binding result was “no binding (tested: 100 nM)”.
Turning to B2, the binding result was “no binding (tested: 100 nM)”.
With B9, the binding result is reported as “no binding (tested: 100 nM)”.
B4: the binding result was “no binding (tested: 100 nM)”.
Take B7: the binding result is given as “no binding (tested: 100 nM)”.

A further test concerns the target T4, Apple (Mal d 1, MyBiosource, Cat …). Nature of the test: SPR Biacore, 25C.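 Further: binding of related allergens to purified monoclonal anti-Bet v 1 antibodies by surface plasmon resonance in HEPES-buffered saline pH 7.4, kinetics fitted to a 1:1 model with mass transport.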
Protocol: as §1
As for B8, the binding result is “no binding (tested: 100 nM)”.
B1: the binding result was “no binding (tested: 100 nM)”.
Still for that read-out and setting: as for B2, the entry is “no binding (tested: 100 nM)”; as for B3, “no binding (tested: 100 nM)”; as for B9, “no binding (tested: 100 nM)”.
As to B4, the binding result is on record as “no binding (tested: 100 nM)”.
Turning to B5, the binding result is “no binding (tested: 100 nM)”.
The same measure, in the same setting: as for B7, the entry is “no binding (tested: 100 nM)”.

A further test concerns the target T5, Celery (Api g 1, MyBiosource, Cat …). In words: SPR Biacore, 25C.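 Further: binding of related allergens to purified monoclonal anti-Bet v 1 antibodies by surface plasmon resonance in HEPES-buffered saline pH 7.4, kinetics fitted to a 1:1 model with mass transport.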
Protocol: as §1
On to B8, for which the binding result was “no binding (tested: 100 nM)”.
For B1, the binding result is given as “no binding (tested: 100 nM)”.
With B3, the binding result is recorded as “no binding (tested: 100 nM)”.
Turning to B9, the binding result is reported as “no binding (tested: 100 nM)”.
For B4, the binding result is given as “no binding (tested: 100 nM)”.
B5: the binding result is on record as “no binding (tested: 100 nM)”.
Take B6: the binding result is reported as “no binding (tested: 100 nM)”.
For the molecule B7, the binding result is listed as “no binding (tested: 100 nM)”.

Another test deals with T1, natural Bet v 1 (Indoor, Cat #NA-BV1-1). In words: SPR Biacore, mAb captured on anti-hFc, 37C.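 Further: purified anti-Bet v 1 monoclonal antibodies, HBS-ET running buffer pH 7.4, rate constants from 1:1 model fit with mass transport limitation, KD and t½ calculated from kinetic constants.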
Protocol: Equilibrium dissociation constants (KD) for natural Bet v 1 binding to purified anti-Bet v 1 monoclonal antibodies were determined using a real-time surface plasmon resonance biosensor (SPR-Biacore) on a Biacore 4000 instrument. All binding studies were performed in 10 mM HEPES, 150 mM NaCl, 3 mM EDTA, and 0.05% v/v surfactant Tween-20, pH 7.4 (HBS-ET) running buffer at 25° C. and 37° C. […] Association (kₐ) and dissociation (kd) rate constants were determined by fitting the real-time binding sensorgrams to a 1:1 binding model with mass transport limitation using Scrubber 2.0c curve-fitting software. Binding dissociation equilibrium constants (KD) and dissociative half-lives (t½) were calculated from the kinetic rate constants as:
Turning to B1, the “100 nM natural Bet v 1 Bound (RU)” value was 63 RU, binding was characterised by a dissociation constant (Kd) of 27.9 nM, the koff was 0.00544 s⁻¹ and the kon was 485000 M⁻¹ s⁻¹. This molecule also came in with a t½ of 2.1 min.
The matching figures for B2: 74 RU, 1.9 nM, 0.00119 s⁻¹, 627000 M⁻¹ s⁻¹ and 10 min.
For B3, in that order: 71 RU, 7.77 nM, 0.0029 s⁻¹, 373000 M⁻¹ s⁻¹ and 3.9 min.
The matching figures for B4: 52 RU, 1.8 nM, 0.000616 s⁻¹, 342000 M⁻¹ s⁻¹ and 19 min.
For the molecule B5, the “100 nM natural Bet v 1 Bound (RU)” value is 74 RU, binding was put at a Kd of 9.16 nM, the koff is 0.00477 s⁻¹ and the association rate constant (kon) stood at 520000 M⁻¹ s⁻¹. This molecule also yielded a t½ of 2.4 min.
In the case of B6, the “100 nM natural Bet v 1 Bound (RU)” value amounted to 66 RU, binding was characterised by a dissociation constant (Kd) of 6.93 nM, the koff came to 0.00244 s⁻¹ and the kon was found to be 352000 M⁻¹ s⁻¹. The same molecule returned a t½ of 4.7 min.
With B7, the “100 nM natural Bet v 1 Bound (RU)” value amounted to 93 RU, the Kd stood at 2.08 nM, the koff amounted to 0.000601 s⁻¹ and the kon is 289000 M⁻¹ s⁻¹. Also, the t½ was determined as 19 min.

What is called Kd is the constant that tells how readily two partners part at equilibrium. A high value points to weaker binding. What is called koff is the rate constant with which the complex falls apart. Lower therefore signals a long-lived complex. By kon is commonly meant the rate constant with which the complex forms. Low values mean slow association, high ones fast association. One may read the t½ as the time needed for the level to fall by half in the phase considered. A higher t½ goes with slow decline.
